From the supplement of paper PMC10065799, “High-throughput profiling of sequence recognition by tyrosine kinases and SH2 domains using bacterial peptide display” (eLife, 2023)

Each sequence was assayed on c-Src (assay: phosphorylation enrichment, bacterial display (enrichment ratio); higher = better substrate or ligand; peptides without Tyr show the background).
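Wherever SH2 binding enrichment of the phosphorylated peptide, bacterial display is given: peptide library displayed on the E. coli surface as eCPX fusions, selected cells deep-sequenced, score is each peptide's frequency after selection divided by its frequency in the input.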
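Wherever phosphorylation enrichment, bacterial display is given: 11-residue human phosphosite peptides and single-mutation variants displayed on the E. coli surface, counted by deep sequencing, each peptide's frequency after selection divided by its frequency in the unselected input library; frequency after pTyr selection over input frequency; kinase dosed for 20-30% of maximal phosphorylation in three min.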

| Sequence | phosphorylation enrichment |
| --- | --- |
| RPPFTYATLIR [FOXP3_Y342] | 3.29 |
| ICFSDYVEVAD [PHACTR1_Y525_R521C] | 0.549 |
| NGSKGYAYVHF [PABPC5_Y147] | 0.456 |
| KENITYMKREQ [L1TD1_Y24] | 0.58 |
| KFFRVYQGQQP [MUTYH_Y494_V490F] | 0.457 |
| SSVKLYRVFCD [FGB_Y266_P265L_YF] | 0.47 |
| ELCSEYHKSRK [SPINK5_Y440_R441H] | 0.633 |
| HRNGMYGLHQD [SGSH_Y89_Q85R] | 0.389 |
| QEMMEYRRQIQ [DES_Y324_H326R] | 0.563 |
| LTAEVYFPSIK [C5orf64_Y60] | 0.75 |
| KNAEKYAEEDW [HSPA9_Y568_R573W] | 0.51 |
| GEDEPYSEPFA [APBA1_Y183_YF] | 0.598 |
| VKMLEYRGKDV [CASP5_Y74_L75R] | 0.465 |
| SVVVPSEPPEV [TP53_Y220_Y220S] | 0.449 |
| DYLEKYYKFGS [NNMT_Y24] | 0.636 |
| NTGFFYDLFGG [PTPN11_Y63_D61Y_YF] | 2.85 |
| TVSSDYLHPQY [CCPG1_Y569_F566S] | 0.355 |

| Sequence | phosphorylation enrichment |
| --- | --- |
| EYQLPYYNTVP [BMPR1A_Y457_M460T] | 5.66 |
| QNKEDYAGLKE [GSTO1_Y139] | 1.01 |
| ERDTVYSSSGV [NELL2_Y350_N347D] | 1.79 |
| MDDDQYALLTA [EFCAB6_Y675_T680A] | 0.608 |
| GYQPEYGQPAG [SYP_Y278_D277E] | 0.443 |
| CENNRYGMGTS [PDHA1_Y227] | 0.517 |
| TLNFCYQQVKS [PTK2_Y148_F147C] | 0.524 |
| RRNTPYSQTMK [TET2_Y819_S817T] | 0.44 |
| TFVVLYDAELT [ERCC4_Y581_R576T_YF] | 0.596 |
| ANFTEYVATRW [CDKL5_Y171_YF] | 0.466 |
| TFRPPYFHRDC [HGD_Y333_N337D_YF] | 0.558 |
| PQDVTYAQLHS [LILRB4_Y412] | 2.8 |
| RIAFQYGDTDL [MYBPC3_Y340_V342D] | 0.381 |
| CTTIHYNFMSN [TP53_Y234_C238S_YF] | 0.483 |
| LMLVLYGRIFR [HTR1A_Y215] | 0.644 |
| AKKKMYSCKTK [AGXT_Y231_R233C] | 0.474 |

What follows are sequences tested against Grb2 SH2 (UniProt P62993) (assay: SH2 binding enrichment of the phosphorylated peptide, bacterial display (enrichment ratio); higher = better substrate or ligand; peptides without Tyr show the background).
Chain of Grb2 SH2 (P62993 whole entry, looked up): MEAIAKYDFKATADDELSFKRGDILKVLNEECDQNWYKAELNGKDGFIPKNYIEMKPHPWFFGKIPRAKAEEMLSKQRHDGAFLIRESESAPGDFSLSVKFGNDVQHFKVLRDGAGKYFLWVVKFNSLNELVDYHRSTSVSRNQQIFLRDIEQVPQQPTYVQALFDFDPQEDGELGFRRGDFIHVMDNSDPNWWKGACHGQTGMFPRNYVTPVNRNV

| Sequence | SH2 binding enrichment |
| --- | --- |
| RPPFTYATLIR [FOXP3_Y342] | 1.37 |
| ICFSDYVEVAD [PHACTR1_Y525_R521C] | 0.607 |
| NGSKGYAYVHF [PABPC5_Y147] | 0.826 |
| KENITYMKREQ [L1TD1_Y24] | 0.809 |
| KFFRVYQGQQP [MUTYH_Y494_V490F] | 0.953 |
| SSVKLYRVFCD [FGB_Y266_P265L_YF] | 0.665 |
| ELCSEYHKSRK [SPINK5_Y440_R441H] | 0.824 |
| HRNGMYGLHQD [SGSH_Y89_Q85R] | 0.939 |
| QEMMEYRRQIQ [DES_Y324_H326R] | 0.737 |
| LTAEVYFPSIK [C5orf64_Y60] | 0.763 |
| KNAEKYAEEDW [HSPA9_Y568_R573W] | 0.735 |
| GEDEPYSEPFA [APBA1_Y183_YF] | 0.936 |
| VKMLEYRGKDV [CASP5_Y74_L75R] | 0.618 |
| SVVVPSEPPEV [TP53_Y220_Y220S] | 1.03 |
| DYLEKYYKFGS [NNMT_Y24] | 0.922 |
| NTGFFYDLFGG [PTPN11_Y63_D61Y_YF] | 1.51 |
| TVSSDYLHPQY [CCPG1_Y569_F566S] | 1.21 |

| Sequence | SH2 binding enrichment |
| --- | --- |
| EYQLPYYNTVP [BMPR1A_Y457_M460T] | 9.47 |
| QNKEDYAGLKE [GSTO1_Y139] | 0.69 |
| ERDTVYSSSGV [NELL2_Y350_N347D] | 0.847 |
| MDDDQYALLTA [EFCAB6_Y675_T680A] | 0.761 |
| GYQPEYGQPAG [SYP_Y278_D277E] | 0.801 |
| CENNRYGMGTS [PDHA1_Y227] | 0.77 |
| TLNFCYQQVKS [PTK2_Y148_F147C] | 0.898 |
| RRNTPYSQTMK [TET2_Y819_S817T] | 1.23 |
| TFVVLYDAELT [ERCC4_Y581_R576T_YF] | 1.38 |
| ANFTEYVATRW [CDKL5_Y171_YF] | 0.806 |
| TFRPPYFHRDC [HGD_Y333_N337D_YF] | 1.18 |
| PQDVTYAQLHS [LILRB4_Y412] | 0.56 |
| RIAFQYGDTDL [MYBPC3_Y340_V342D] | 0.954 |
| CTTIHYNFMSN [TP53_Y234_C238S_YF] | 0.851 |
| LMLVLYGRIFR [HTR1A_Y215] | 1.54 |
| AKKKMYSCKTK [AGXT_Y231_R233C] | 1.44 |

Each sequence was assayed against SHP2-C SH2 in the same assay as above.

| Sequence | SH2 binding enrichment |
| --- | --- |
| RPPFTYATLIR [FOXP3_Y342] | 6.22 |
| ICFSDYVEVAD [PHACTR1_Y525_R521C] | 0.515 |
| NGSKGYAYVHF [PABPC5_Y147] | 19.3 |
| KENITYMKREQ [L1TD1_Y24] | 0.692 |
| KFFRVYQGQQP [MUTYH_Y494_V490F] | 0.596 |
| SSVKLYRVFCD [FGB_Y266_P265L_YF] | 0.633 |
| ELCSEYHKSRK [SPINK5_Y440_R441H] | 0.679 |
| HRNGMYGLHQD [SGSH_Y89_Q85R] | 0.751 |
| QEMMEYRRQIQ [DES_Y324_H326R] | 0.734 |
| LTAEVYFPSIK [C5orf64_Y60] | 0.708 |
| KNAEKYAEEDW [HSPA9_Y568_R573W] | 0.541 |
| GEDEPYSEPFA [APBA1_Y183_YF] | 0.914 |
| VKMLEYRGKDV [CASP5_Y74_L75R] | 0.628 |
| SVVVPSEPPEV [TP53_Y220_Y220S] | 0.958 |
| DYLEKYYKFGS [NNMT_Y24] | 0.727 |
| NTGFFYDLFGG [PTPN11_Y63_D61Y_YF] | 1.66 |
| TVSSDYLHPQY [CCPG1_Y569_F566S] | 0.88 |

| Sequence | SH2 binding enrichment |
| --- | --- |
| EYQLPYYNTVP [BMPR1A_Y457_M460T] | 0.872 |
| QNKEDYAGLKE [GSTO1_Y139] | 0.902 |
| ERDTVYSSSGV [NELL2_Y350_N347D] | 0.492 |
| MDDDQYALLTA [EFCAB6_Y675_T680A] | 0.702 |
| GYQPEYGQPAG [SYP_Y278_D277E] | 0.553 |
| CENNRYGMGTS [PDHA1_Y227] | 0.6 |
| TLNFCYQQVKS [PTK2_Y148_F147C] | 0.896 |
| RRNTPYSQTMK [TET2_Y819_S817T] | 1.12 |
| TFVVLYDAELT [ERCC4_Y581_R576T_YF] | 1.73 |
| ANFTEYVATRW [CDKL5_Y171_YF] | 0.595 |
| TFRPPYFHRDC [HGD_Y333_N337D_YF] | 0.741 |
| PQDVTYAQLHS [LILRB4_Y412] | 1.52 |
| RIAFQYGDTDL [MYBPC3_Y340_V342D] | 0.742 |
| CTTIHYNFMSN [TP53_Y234_C238S_YF] | 0.835 |
| LMLVLYGRIFR [HTR1A_Y215] | 1.25 |
| AKKKMYSCKTK [AGXT_Y231_R233C] | 1.59 |

The sequences below were run against c-Src SH2 in the same assay as above.

| Sequence | SH2 binding enrichment |
| --- | --- |
| RPPFTYATLIR [FOXP3_Y342] | 1.25 |
| ICFSDYVEVAD [PHACTR1_Y525_R521C] | 0.467 |
| NGSKGYAYVHF [PABPC5_Y147] | 12.1 |
| KENITYMKREQ [L1TD1_Y24] | 0.498 |
| KFFRVYQGQQP [MUTYH_Y494_V490F] | 0.633 |
| SSVKLYRVFCD [FGB_Y266_P265L_YF] | 0.395 |
| ELCSEYHKSRK [SPINK5_Y440_R441H] | 0.484 |
| HRNGMYGLHQD [SGSH_Y89_Q85R] | 0.631 |
| QEMMEYRRQIQ [DES_Y324_H326R] | 0.401 |
| LTAEVYFPSIK [C5orf64_Y60] | 0.453 |
| KNAEKYAEEDW [HSPA9_Y568_R573W] | 0.541 |
| GEDEPYSEPFA [APBA1_Y183_YF] | 0.593 |
| VKMLEYRGKDV [CASP5_Y74_L75R] | 0.386 |
| SVVVPSEPPEV [TP53_Y220_Y220S] | 0.577 |
| DYLEKYYKFGS [NNMT_Y24] | 0.623 |
| NTGFFYDLFGG [PTPN11_Y63_D61Y_YF] | 0.98 |
| TVSSDYLHPQY [CCPG1_Y569_F566S] | 0.762 |

| Sequence | SH2 binding enrichment |
| --- | --- |
| EYQLPYYNTVP [BMPR1A_Y457_M460T] | 6.88 |
| QNKEDYAGLKE [GSTO1_Y139] | 0.803 |
| ERDTVYSSSGV [NELL2_Y350_N347D] | 0.447 |
| MDDDQYALLTA [EFCAB6_Y675_T680A] | 0.689 |
| GYQPEYGQPAG [SYP_Y278_D277E] | 0.495 |
| CENNRYGMGTS [PDHA1_Y227] | 0.44 |
| TLNFCYQQVKS [PTK2_Y148_F147C] | 0.786 |
| RRNTPYSQTMK [TET2_Y819_S817T] | 0.611 |
| TFVVLYDAELT [ERCC4_Y581_R576T_YF] | 0.893 |
| ANFTEYVATRW [CDKL5_Y171_YF] | 0.523 |
| TFRPPYFHRDC [HGD_Y333_N337D_YF] | 0.93 |
| PQDVTYAQLHS [LILRB4_Y412] | 0.973 |
| RIAFQYGDTDL [MYBPC3_Y340_V342D] | 0.577 |
| CTTIHYNFMSN [TP53_Y234_C238S_YF] | 0.743 |
| LMLVLYGRIFR [HTR1A_Y215] | 1.42 |
| AKKKMYSCKTK [AGXT_Y231_R233C] | 1.2 |
